Target: human beta-Klotho (human, UniProt Q86Z14 1-1044)
Experiment: cell-based or functional assay

FGF21 activity (EC50, nM); p-ERK levels, 1% HSA: 0.96 nM
B1: Native FGF21 (ligand)
chain: HPIPDSSPLLQFGGQVRQRYLYTDDAQQTEAHLEIREDGTVGGAADQSPESLLQLKALKPGVIQILGVKTSRFLCQRPDGALYGSLHFDPEACSFRELLLEDGYNVYQSEAHGLPLHLPGNKSPHRDPAPRGPARFLPLPGLPPALPEPPGILAPQPPDVGSSDPLSMVGPSQGRSPSYAS

Source: patent US20250333461A1 (BEIJING QL BIOPHARMACEUTICAL, published 2025)
